# Experimental data: paper PMC6916587, “The roles of factor Va and protein S in formation of the activated protein C/protein S/factor Va inactivation complex” (Journal of Thrombosis and Haemostasis, 2019)
# T1: protein S (wild type) (UniProt P07225)
# T1 sequence (chain, gamma-carboxyglutamate at 36 (printed as Gla36)): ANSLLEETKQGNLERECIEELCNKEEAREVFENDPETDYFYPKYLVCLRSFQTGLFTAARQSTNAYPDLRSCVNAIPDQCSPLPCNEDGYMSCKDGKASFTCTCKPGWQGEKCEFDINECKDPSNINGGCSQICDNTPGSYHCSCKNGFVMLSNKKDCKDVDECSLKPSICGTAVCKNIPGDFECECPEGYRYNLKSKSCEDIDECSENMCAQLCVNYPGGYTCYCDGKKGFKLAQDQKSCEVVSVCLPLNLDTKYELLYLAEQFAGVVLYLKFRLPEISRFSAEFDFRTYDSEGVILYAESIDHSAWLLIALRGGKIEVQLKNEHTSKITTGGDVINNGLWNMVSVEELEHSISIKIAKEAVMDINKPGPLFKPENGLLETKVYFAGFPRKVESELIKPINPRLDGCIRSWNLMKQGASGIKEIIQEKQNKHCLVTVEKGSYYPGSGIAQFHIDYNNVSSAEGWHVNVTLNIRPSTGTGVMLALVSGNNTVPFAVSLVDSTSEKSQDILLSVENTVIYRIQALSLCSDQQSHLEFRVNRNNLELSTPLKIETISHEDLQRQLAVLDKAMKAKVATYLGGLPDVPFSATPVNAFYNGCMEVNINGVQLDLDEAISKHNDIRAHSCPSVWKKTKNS
# T2: activated factor V (FVa), wild type (UniProt P12259 29-737; P12259 1574-2224)
# T2 construct: FVa heavy chain (A1-A2), cut from full-length recombinant FV by thrombin; FVa light chain (A3-C1-C2), cut from full-length recombinant FV by thrombin with release of the B domain; FV cDNA in vector pED from Dr Rodney Camire; also called WT FVa; factor Va
# T2 sequence (looked up) 1: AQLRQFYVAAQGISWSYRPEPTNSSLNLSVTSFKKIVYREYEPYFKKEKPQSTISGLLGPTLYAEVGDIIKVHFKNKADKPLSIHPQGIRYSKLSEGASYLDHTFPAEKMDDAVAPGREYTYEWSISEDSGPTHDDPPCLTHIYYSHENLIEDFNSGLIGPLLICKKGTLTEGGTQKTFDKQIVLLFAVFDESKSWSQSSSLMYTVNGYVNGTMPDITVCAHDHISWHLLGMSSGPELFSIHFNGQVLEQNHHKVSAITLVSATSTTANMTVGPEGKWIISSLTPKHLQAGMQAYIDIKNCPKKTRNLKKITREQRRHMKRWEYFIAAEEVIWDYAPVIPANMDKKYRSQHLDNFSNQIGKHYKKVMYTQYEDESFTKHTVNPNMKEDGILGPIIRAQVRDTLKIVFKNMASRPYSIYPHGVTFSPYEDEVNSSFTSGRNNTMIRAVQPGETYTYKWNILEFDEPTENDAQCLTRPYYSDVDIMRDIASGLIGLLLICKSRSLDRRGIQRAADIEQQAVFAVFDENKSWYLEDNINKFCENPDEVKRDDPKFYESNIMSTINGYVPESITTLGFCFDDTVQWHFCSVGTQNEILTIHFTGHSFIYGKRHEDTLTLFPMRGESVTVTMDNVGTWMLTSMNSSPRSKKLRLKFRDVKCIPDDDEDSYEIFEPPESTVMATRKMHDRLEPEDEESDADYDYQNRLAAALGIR
# T2 sequence (looked up) 2: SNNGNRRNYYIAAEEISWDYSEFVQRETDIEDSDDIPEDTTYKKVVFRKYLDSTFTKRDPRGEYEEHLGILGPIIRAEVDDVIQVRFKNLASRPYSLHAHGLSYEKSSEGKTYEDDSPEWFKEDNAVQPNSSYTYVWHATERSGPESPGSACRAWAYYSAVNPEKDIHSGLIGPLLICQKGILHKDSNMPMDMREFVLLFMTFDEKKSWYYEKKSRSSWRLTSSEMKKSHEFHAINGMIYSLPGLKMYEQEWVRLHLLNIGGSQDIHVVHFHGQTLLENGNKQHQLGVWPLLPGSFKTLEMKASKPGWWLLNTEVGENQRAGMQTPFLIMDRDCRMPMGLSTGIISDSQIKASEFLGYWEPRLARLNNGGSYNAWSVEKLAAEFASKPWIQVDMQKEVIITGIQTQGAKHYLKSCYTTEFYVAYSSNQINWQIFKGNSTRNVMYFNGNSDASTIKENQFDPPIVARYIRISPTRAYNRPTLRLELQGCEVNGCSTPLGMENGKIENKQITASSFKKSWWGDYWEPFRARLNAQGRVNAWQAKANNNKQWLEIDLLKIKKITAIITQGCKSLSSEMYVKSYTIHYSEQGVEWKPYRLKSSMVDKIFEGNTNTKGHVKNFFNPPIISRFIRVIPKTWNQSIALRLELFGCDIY
# T3: β-chain-containing C4b-binding protein (C4BP), protein S-free (human, UniProt P04003 49-597; P20851 18-252)
# T3 construct: source: purified from pooled fresh frozen citrated human plasma
# T3 sequence (looked up) 1: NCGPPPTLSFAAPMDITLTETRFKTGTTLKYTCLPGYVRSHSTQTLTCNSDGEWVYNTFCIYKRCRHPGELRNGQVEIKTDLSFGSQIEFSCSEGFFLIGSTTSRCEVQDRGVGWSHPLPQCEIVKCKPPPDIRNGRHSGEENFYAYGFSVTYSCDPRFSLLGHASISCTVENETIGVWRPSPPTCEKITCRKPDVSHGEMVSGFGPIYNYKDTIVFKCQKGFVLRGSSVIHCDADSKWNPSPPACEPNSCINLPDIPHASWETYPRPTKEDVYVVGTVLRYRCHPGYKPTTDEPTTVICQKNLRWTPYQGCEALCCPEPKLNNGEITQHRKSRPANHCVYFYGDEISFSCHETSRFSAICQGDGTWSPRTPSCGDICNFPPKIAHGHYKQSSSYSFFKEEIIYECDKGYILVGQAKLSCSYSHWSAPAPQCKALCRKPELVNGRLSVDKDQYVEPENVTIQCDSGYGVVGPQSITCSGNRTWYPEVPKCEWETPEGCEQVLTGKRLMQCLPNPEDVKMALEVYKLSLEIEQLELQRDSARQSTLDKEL
# T3 sequence (looked up) 2: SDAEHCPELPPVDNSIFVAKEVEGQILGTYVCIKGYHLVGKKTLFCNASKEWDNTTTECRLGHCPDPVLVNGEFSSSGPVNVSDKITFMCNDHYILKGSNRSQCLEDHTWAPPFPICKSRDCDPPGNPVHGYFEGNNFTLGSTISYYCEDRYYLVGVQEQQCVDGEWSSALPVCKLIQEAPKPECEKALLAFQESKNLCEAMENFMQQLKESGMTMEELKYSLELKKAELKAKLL
# B1: protein S (wild type) (natural protein, UniProt P07225 42-676, looked up)
# chain: T1 sequence (chain, gamma-carboxyglutamate at 36 (printed as Gla36))
# modifications: gamma-carboxyglutamate at 36 (printed as Gla36)
# notes: protein S, wild type; also called WT protein S; PS; source: HEK293 cells, stably transfected, purified (barium citrate precipitation, anion exchange chromatography)
# Columns and labels:
# protein S (wild type) = target: T1, protein S (wild type)
# [1] = target: T2, activated factor V (FVa), wild type; assay: flow cytometry on phospholipid-coated magnetic beads; as a2, with 200 nmol/L β-chain-containing C4BP pre-incubated with 100 nmol/L protein S and 25 nmol/L FVa for 10 min before 50 nmol/L APC-Fluor; conditions: both partners purified
# [2] = target: T3, β-chain-containing C4b-binding protein …; assay: as above; conditions: both partners purified
Molecule,"FVa inactivation assay (remaining FVa activity by prothrombinase assay): protein S needed for inactivation comparable to WT FVa at 3 nmol/L protein S; 0.25 nmol/L APC, 25 μmol/L phospholipids, 10 min (protein S (wild type))","FVa inactivation assay in the presence of protein S: APC (0-0.25 nmol/L) that reduces FVa activity by ~50%; 25 μmol/L phospholipids, 10 min (protein S (wild type))",binding result [1],binding result [2]
"activated factor V Nara (FVa^Nara, W1920R) (from UniProt P12259 29-737; P12259 1574-2224) (natural protein)",> 50 nmol/L,> 50 pmol/L,–,–
B1,–,–,binds,binds
